The values that follow come from patent US20260167693A1 (ANGELES THERAPEUTICS, published 2026).

Residue numbers refer to the chain shown, from its start. In names and notes the source's numbering stands.

The labels stand for the following.
T1: CD19-ECD-GGSG-NLuc-AcV5 (human)
T1 construct: also called CD19-GGSG-NLuc-AcV5; Flag-CD19-GGSG-NLuc-AcV5
T1 chain: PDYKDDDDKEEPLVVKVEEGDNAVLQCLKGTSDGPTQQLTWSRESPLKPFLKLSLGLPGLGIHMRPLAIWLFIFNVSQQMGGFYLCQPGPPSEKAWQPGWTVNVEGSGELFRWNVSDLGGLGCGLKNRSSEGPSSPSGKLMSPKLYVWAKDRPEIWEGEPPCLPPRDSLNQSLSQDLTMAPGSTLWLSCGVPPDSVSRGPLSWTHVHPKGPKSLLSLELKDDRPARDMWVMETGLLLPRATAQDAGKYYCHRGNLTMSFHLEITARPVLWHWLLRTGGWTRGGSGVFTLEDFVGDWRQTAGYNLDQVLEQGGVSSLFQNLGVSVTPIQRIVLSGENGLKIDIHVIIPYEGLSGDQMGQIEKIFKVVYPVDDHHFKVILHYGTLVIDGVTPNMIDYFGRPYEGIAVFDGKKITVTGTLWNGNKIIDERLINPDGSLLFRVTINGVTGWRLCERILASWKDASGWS

B1: CD8SP-FMC63-vL-PG4SP-v2-[hTCRb-KACIAH]-F-P2A-SP-FMC63-vH-PG4SP-[hTCRa-CSDVP]-F-F2A-PAC (other)
TCR beta: DIQMTQTTSSLSASLGDRVTISCRASQDISKYLNWYQQKPDGTVKLLIYHTSRLHSGVPSRFSGSGSGTDYSLTISNLEQEDIATYFCQQGNTLPYTFGGGTKLEITPGGGGSPEDLKNVFPPEVAVFEPSKAEIAHTQKATLVCLATGFYPDHVELSWWVNGKEVHSGVCTDPQPLKEQPALNDSRYCLSSRLRVSATFWQNPRNHFRCQVQFYGLSENDEWTQDRAKPVTQIVSAEAWGRADCGITSASYHQGVLSATILYEILLGKATLYAVLVSALVLMAMVKRKDSRG
TCR alpha: EVKLQESGPGLVAPSQSLSVTCTVSGVSLPDYGVSWIRQPPRKGLEWLGVIWGSETTYYNSALKSRLTIIKDNSKSQVFLKMNSLQTDDTAIYYCAKHYYYGGSYAMDYWGQGTSVTVSSPGGGGSPIQNPDPAVYQLRDSKSSDKSVCLFTDFDSQTNVSQSKDSDVYITDKCVLDMRSMDFKSNSAVAWSNKSDFACANAFNNSIIPEDTFFPSSDVPCDVKLVEKSFETDTNLNFQNLSVIGFRILLLKVAGFNLLMTLRLWSS
notes: Polyprotein PRT 12433; also called 040617-A09
B2: CD8SP-FMC63-vL-E-Coil-[hTCRb-KACIAH]-F-P2A-SP-FMC63-vH-K-coil-[hTCRa-CSDVP]-F-F2A-PAC (other)
TCR beta: B1 TCR beta with P108E, G109V, G110A, G111A, G112L, S113E, P114R
TCR alpha: B1 TCR alpha with P121R, G122V, G123A, G124A, G125L, S126K, P127E
notes: Polyprotein PRT 12434; also called 040617-B09
B3: CD8SP-FMC63-vL-V5-[hTCRb-KACIAH]-F-P2A-SP-FMC63-vH-Myc-[hTCRa-CSDVP]-F-F2A-PAC (010616-C01)[SEQ ID NO:1200] (other)
TCR beta: DIQMTQTTSSLSASLGDRVTISCRASQDISKYLNWYQQKPDGTVKLLIYHTSRLHSGVPSRFSGSGSGTDYSLTISNLEQEDIATYFCQQGNTLPYTFGGGTKLEITGKPIPNPLLGLDSTGSGEDLKNVFPPEVAVFEPSKAEIAHTQKATLVCLATGFYPDHVELSWWVNGKEVHSGVCTDPQPLKEQPALNDSRYCLSSRLRVSATFWQNPRNHFRCQVQFYGLSENDEWTQDRAKPVTQIVSAEAWGRADCGITSASYHQGVLSATILYEILLGKATLYAVLVSALVLMAMVKRKDSRG
TCR alpha: EVKLQESGPGLVAPSQSLSVTCTVSGVSLPDYGVSWIRQPPRKGLEWLGVIWGSETTYYNSALKSRLTIIKDNSKSQVFLKMNSLQTDDTAIYYCAKHYYYGGSYAMDYWGQGTSVTVSSEQKLISEEDGSGIQNPDPAVYQLRDSKSSDKSVCLFTDFDSQTNVSQSKDSDVYITDKCVLDMRSMDFKSNSAVAWSNKSDFACANAFNNSIIPEDTFFPSSDVPCDVKLVEKSFETDTNLNFQNLSVIGFRILLLKVAGFNLLMTLRLWSS
notes: Polyprotein PRT 3435; also called 102615-C08
B4: CD8SP-FMC63-vL-[hTCRb-S57C-opt]-F-P2A-SP-FMC63-vH-Myc-[hTCRa-CSDVP]-F-F2A-PAC (other)
TCR beta: DIQMTQTTSSLSASLGDRVTISCRASQDISKYLNWYQQKPDGTVKLLIYHTSRLHSGVPSRFSGSGSGTDYSLTISNLEQEDIATYFCQQGNTLPYTFGGGTKLEITEDLKNVFPPEVAVFEPSEAEISHTQKATLVCLATGFYPDHVELSWWVNGKEVHSGVCTDPQPLKEQPALNDSRYCLSSRLRVSATFWQNPRNHFRCQVQFYGLSENDEWTQDRAKPVTQIVSAEAWGRADCGFTSESYQQGVLSATILYEILLGKATLYAVLVSALVLMAMVKRKDSRG
TCR alpha: B3 TCR alpha
notes: Polyprotein PRT 12438; also called 110916-P02
B5: CD8SP-FMC63-vL-V5-[hTCRb-KACIAH]-F-P2A-SP-FMC63-vH-[GSG-hTCRa-T48C-opt]-F-F2A-PAC (other)
TCR beta: B3 TCR beta
TCR alpha: EVKLQESGPGLVAPSQSLSVTCTVSGVSLPDYGVSWIRQPPRKGLEWLGVIWGSETTYYNSALKSRLTIIKDNSKSQVFLKMNSLQTDDTAIYYCAKHYYYGGSYAMDYWGQGTSVTVSSGSGIQNPDPAVYQLRDSKSSDKSVCLFTDFDSQTNVSQSKDSDVYITDKCVLDMRSMDFKSNSAVAWSNKSDFACANAFNNSIIPEDTFFPSPESSCDVKLVEKSFETDTNLNFQNLSVIGFRILLLKVAGFNLLMTLRLWSS
notes: Polyprotein PRT 12436; also called 110916-M04
B6: CD8SP-FMC63-vL-V5-[hTCRb-KACIAH]-F-P2A-SP-FMC63-vH-Myc4-[hTCRα-SD]-F-F2A-PAC (other)
TCR beta: B3 TCR beta
TCR alpha: EVKLQESGPGLVAPSQSLSVTCTVSGVSLPDYGVSWIRQPPRKGLEWLGVIWGSETTYYNSALKSRLTIIKDNSKSQVFLKMNSLQTDDTAIYYCAKHYYYGGSYAMDYWGQGTSVTVSSEQKLISEEDLGSGIQNPDPAVYQLRDSKSSDKSVCLFTDFDSQTNVSQSKDSDVYITDKTVLDMRSMDFKSNSAVAWSNKSDFACANAFNNSIIPEDTFFPSSDSSCDVKLVEKSFETDTNLNFQNLSVIGFRILLLKVAGFNLLMTLRLWSS
notes: Polyprotein PRT 12444; also called 120916-R01
B7: CD8SP-FMC63-vL-GSG-hTCRb-RAC-F-P2A-SP-FMC63-vH-Myc-[hTCRa-CSDVP]-F-F2A-PAC (other)
TCR beta: DIQMTQTTSSLSASLGDRVTISCRASQDISKYLNWYQQKPDGTVKLLIYHTSRLHSGVPSRFSGSGSGTDYSLTISNLEQEDIATYFCQQGNTLPYTFGGGTKLEITGSGEDLKNVFPPEVAVFEPSRAEIAHTQKATLVCLATGFYPDHVELSWWVNGKEVHSGVCTDPQPLKEQPALNDSRYCLSSRLRVSATFWQNPRNHFRCQVQFYGLSENDEWTQDRAKPVTQIVSAEAWGRADCGFTSESYQQGVLSATILYEILLGKATLYAVLVSALVLMAMVKRKDSRG
TCR alpha: B3 TCR alpha
notes: Polyprotein PRT 12447; also called 121516-W05
B8: CD8SP-FMC63-vL-[hTCRa-CSDVP]-F-F2A-SP-FMC63-vH-[hTCRb-KACIAH]-F-P2A-PAC (other)
TCR alpha: DIQMTQTTSSLSASLGDRVTISCRASQDISKYLNWYQQKPDGTVKLLIYHTSRLHSGVPSRFSGSGSGTDYSLTISNLEQEDIATYFCQQGNTLPYTFGGGTKLEITIQNPDPAVYQLRDSKSSDKSVCLFTDFDSQTNVSQSKDSDVYITDKCVLDMRSMDFKSNSAVAWSNKSDFACANAFNNSIIPEDTFFPSSDVPCDVKLVEKSFETDTNLNFQNLSVIGFRILLLKVAGFNLLMTLRLWSS
TCR beta: EVKLQESGPGLVAPSQSLSVTCTVSGVSLPDYGVSWIRQPPRKGLEWLGVIWGSETTYYNSALKSRLTIIKDNSKSQVFLKMNSLQTDDTAIYYCAKHYYYGGSYAMDYWGQGTSVTVSSEDLKNVFPPEVAVFEPSKAEIAHTQKATLVCLATGFYPDHVELSWWVNGKEVHSGVCTDPQPLKEQPALNDSRYCLSSRLRVSATFWQNPRNHFRCQVQFYGLSENDEWTQDRAKPVTQIVSAEAWGRADCGITSASYHQGVLSATILYEILLGKATLYAVLVSALVLMAMVKRKDSRG
notes: Polyprotein PRT 12469; also called 022217-F01
B9: CD8SP-FMC63-vL-[hTCRb-R18A22]-F-P2A-SP-FMC63-vH-Myc4-[hTCRa-SD]-F-F2A-PAC (other)
TCR beta: B4 TCR beta with E125R, S129A, C164S
TCR alpha: B6 TCR alpha
notes: Polyprotein PRT 12439; also called 112116-R08
B10: CD8SP-FMC63-vL-Myc2-[hTCRb-R18A22]-F-P2A-SP-FMC63-vH-Myc4-[hTCRa-SD]-F-F2A-PAC (other)
TCR beta: DIQMTQTTSSLSASLGDRVTISCRASQDISKYLNWYQQKPDGTVKLLIYHTSRLHSGVPSRFSGSGSGTDYSLTISNLEQEDIATYFCQQGNTLPYTFGGGTKLEITEQKLISEEDLGSGEDLKNVFPPEVAVFEPSRAEIAHTQKATLVCLATGFYPDHVELSWWVNGKEVHSGVSTDPQPLKEQPALNDSRYCLSSRLRVSATFWQNPRNHFRCQVQFYGLSENDEWTQDRAKPVTQIVSAEAWGRADCGFTSESYQQGVLSATILYEILLGKATLYAVLVSALVLMAMVKRKDSRG
TCR alpha: B6 TCR alpha
notes: Polyprotein PRT 12440; also called 112116-S08
B11: CD8SP-FMC63-vL-[hTCRb-RC]-F-P2A-SP-FMC63-vH-[hTCRa-CSDVP]-F-F2A-PAC (other)
TCR beta: B4 TCR beta with E125R
TCR alpha: EVKLQESGPGLVAPSQSLSVTCTVSGVSLPDYGVSWIRQPPRKGLEWLGVIWGSETTYYNSALKSRLTIIKDNSKSQVFLKMNSLQTDDTAIYYCAKHYYYGGSYAMDYWGQGTSVTVSSIQNPDPAVYQLRDSKSSDKSVCLFTDFDSQTNVSQSKDSDVYITDKCVLDMRSMDFKSNSAVAWSNKSDFACANAFNNSIIPEDTFFPSSDVPCDVKLVEKSFETDTNLNFQNLSVIGFRILLLKVAGFNLLMTLRLWSS
notes: Polyprotein PRT 12445; also called 121516-U07
B12: CD8SP-FMC63-vL-[hTCRb-KACIAH]-F-P2A-SP-FMC63-vH-[hTCRa-CSDVP]-F-F2A-PAC (other)
TCR beta: B4 TCR beta with E125K, S129A, F240I, E243A, Q246H
TCR alpha: B11 TCR alpha
notes: Polyprotein PRT 12468; also called 022217-E01
B13: CD8SP-FMC63-vL-[hTCRb-R18]-F-P2A-SP-FMC63-vH-Myc4-[hTCRa-SD]-F-F2A-PAC (other)
TCR beta: B4 TCR beta with E125R, C164S
TCR alpha: B6 TCR alpha
notes: Polyprotein PRT 12442; also called 112116-U08

This assay addresses T1, CD19-ECD-GGSG-NLuc-AcV5. Description: NLuc binding assay, SIR on Jurkat-NFAT-GFP cells.
For the molecule B1, the “CD19-GGSG-NLuc (RLU)” value was 53700 RLU.

Turning to B2, the “CD19-GGSG-NLuc (RLU)” value was determined as 35700 RLU.

Take B3: the “CD19-GGSG-NLuc (RLU)” value stood at 6840 RLU.

As for B4, the “CD19-GGSG-NLuc (RLU)” value turned out to be 2180 RLU.

B5: the “CD19-GGSG-NLuc (RLU)” value is 20500 RLU.

Regarding B6, the “CD19-GGSG-NLuc (RLU)” value is 2660 RLU.

For the molecule B7, the “CD19-GGSG-NLuc (RLU)” value is 17200 RLU.

For the molecule B8, the “CD19-GGSG-NLuc (RLU)” value worked out at 21300 RLU.

As for B9, the “CD19-GGSG-NLuc (RLU)” value was determined as 7570 RLU.

With B10, the “CD19-GGSG-NLuc (RLU)” value came to 4480 RLU.

Consider B11, for which the “CD19-GGSG-NLuc (RLU)” value stood at 12600 RLU.

On to B12, for which the “CD19-GGSG-NLuc (RLU)” value was determined as 9760 RLU.

Consider B13, for which the “CD19-GGSG-NLuc (RLU)” value was 3910 RLU.
